The target in test [1] is T1, estrogen receptor alpha (ERα) (human (endogenous in MCF-7 and T-47D)), P03372.
T1 chain: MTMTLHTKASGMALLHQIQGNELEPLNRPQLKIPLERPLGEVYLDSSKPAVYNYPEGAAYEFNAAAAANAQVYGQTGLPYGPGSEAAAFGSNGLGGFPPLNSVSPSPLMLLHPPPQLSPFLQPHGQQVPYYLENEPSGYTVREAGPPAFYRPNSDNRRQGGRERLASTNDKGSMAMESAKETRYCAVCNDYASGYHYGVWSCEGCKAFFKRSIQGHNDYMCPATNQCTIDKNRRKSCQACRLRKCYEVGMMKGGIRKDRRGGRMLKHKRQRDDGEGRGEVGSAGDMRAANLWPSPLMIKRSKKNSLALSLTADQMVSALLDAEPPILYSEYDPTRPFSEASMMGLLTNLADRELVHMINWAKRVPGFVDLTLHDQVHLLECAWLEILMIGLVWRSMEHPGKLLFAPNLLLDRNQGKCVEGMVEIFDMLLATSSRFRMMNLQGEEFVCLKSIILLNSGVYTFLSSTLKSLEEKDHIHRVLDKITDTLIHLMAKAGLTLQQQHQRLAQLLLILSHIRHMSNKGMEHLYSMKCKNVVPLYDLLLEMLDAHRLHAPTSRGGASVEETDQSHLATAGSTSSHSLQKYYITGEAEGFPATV
The experiment in a line: structured illumination microscopy (N-SIM) of double immunofluorescence; T-47D cells, formalin-fixed paraffin cell-block sections; two primary antibodies, Alexa Fluor 488 and 594 secondaries; % of ER dimer = yellow area/(yellow + green + red areas) x 100. To be noted: remark: other sources report otherwise.

For test [2], the target named is T1, estrogen receptor alpha (ERα) (human …). The experiment in a line: structured illumination microscopy (N-SIM) of double immunofluorescence; MCF-7 cells, formalin-fixed paraffin cell-block sections; two primary antibodies, Alexa Fluor 488 and 594 secondaries; % of ER dimer = yellow area/(yellow + green + red areas) x 100; homodimer also followed with 10 nM E2 for 15, 45, 90 min. The conditions noted are these: remark: other sources report otherwise.

B1: estrogen receptor alpha (ERα), P03372 1-595 (receptor)
chain: T1 chain
As to B1, the % of ER dimer (N-SIM) in test [1] is 13.4%; in test [2] it was 23%.

The values above are taken from article PMC5433938.
